Experimental data taken from patent US20260250398A1 (ANTLERA THERAPEUTICS, published 2026).

Key:
[1] = molecular target: T1, LRP6 (low-density lipoprotein receptor-related protein 6) (UniProt O75581 20-1370, limits assumed); assay: cell-based or functional assay
T1 sequence (looked up): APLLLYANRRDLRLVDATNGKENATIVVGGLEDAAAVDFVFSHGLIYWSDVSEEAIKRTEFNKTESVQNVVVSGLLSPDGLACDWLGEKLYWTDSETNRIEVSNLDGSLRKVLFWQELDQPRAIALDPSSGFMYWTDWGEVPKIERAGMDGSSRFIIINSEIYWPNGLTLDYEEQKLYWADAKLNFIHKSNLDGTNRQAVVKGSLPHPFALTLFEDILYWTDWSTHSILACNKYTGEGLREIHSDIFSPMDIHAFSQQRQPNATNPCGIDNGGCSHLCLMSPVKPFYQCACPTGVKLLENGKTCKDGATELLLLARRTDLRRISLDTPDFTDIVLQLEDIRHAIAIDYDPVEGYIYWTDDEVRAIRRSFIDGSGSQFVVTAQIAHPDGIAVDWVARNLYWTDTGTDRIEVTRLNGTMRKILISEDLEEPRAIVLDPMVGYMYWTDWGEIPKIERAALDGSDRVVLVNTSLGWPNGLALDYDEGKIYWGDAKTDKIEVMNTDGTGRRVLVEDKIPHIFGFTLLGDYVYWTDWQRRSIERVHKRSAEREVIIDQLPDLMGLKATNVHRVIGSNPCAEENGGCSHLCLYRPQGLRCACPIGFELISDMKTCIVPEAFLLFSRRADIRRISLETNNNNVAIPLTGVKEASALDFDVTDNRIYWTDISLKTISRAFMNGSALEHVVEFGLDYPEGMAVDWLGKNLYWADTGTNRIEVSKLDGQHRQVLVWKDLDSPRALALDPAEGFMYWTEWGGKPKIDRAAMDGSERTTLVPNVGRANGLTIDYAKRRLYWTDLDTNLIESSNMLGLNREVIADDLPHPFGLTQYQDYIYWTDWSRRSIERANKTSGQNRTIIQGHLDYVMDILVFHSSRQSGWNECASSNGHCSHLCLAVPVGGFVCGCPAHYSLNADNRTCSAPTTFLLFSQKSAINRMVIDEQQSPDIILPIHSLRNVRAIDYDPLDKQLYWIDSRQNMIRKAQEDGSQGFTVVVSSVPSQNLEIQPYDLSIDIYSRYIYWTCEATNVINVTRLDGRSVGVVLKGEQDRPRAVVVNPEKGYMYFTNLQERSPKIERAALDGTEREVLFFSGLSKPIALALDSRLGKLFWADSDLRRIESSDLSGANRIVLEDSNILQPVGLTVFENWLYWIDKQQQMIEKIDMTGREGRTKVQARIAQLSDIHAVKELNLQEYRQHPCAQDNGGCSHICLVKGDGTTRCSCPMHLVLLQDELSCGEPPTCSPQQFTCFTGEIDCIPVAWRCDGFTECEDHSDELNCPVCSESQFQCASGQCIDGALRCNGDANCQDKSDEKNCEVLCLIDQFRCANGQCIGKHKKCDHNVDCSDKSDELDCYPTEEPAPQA

[2] = molecular target: T1, LRP6 (low-density lipoprotein …); assay: cell-based or functional assay; remark: listed apart in the source

B1: ANT-1 (LRP Diabody-Fc-FZD Fab; paratopes 2540, 2542; 5016) (bispecific antibody)
heavy 1: MNLLLILTFVAAAVAEFEVQLVESGGGLVQPGGSLRLSCAASGFNISSYYIHWVRQAPGKGLEWVASIYSSYGYTSYADSVKGRFTISADTSKNTAYLQMNSLRAEDTAVYYCARTVRGSKKPYFSGWAMDYWGQGTLVTVSSGGGGSDIQMTQSPSSLSASVGDRVTITCRASQSVSSAVAWYQQKPGKAPKLLIYSASSLYSGVPSRFSGSRSGTDFTLTISSLQPEDFATYYCQQYYFLITFGQGTKVEIKLEDKTHTKVEPKSSDKTHNCPPCPAPELLGGPSVFLFPPKPKDTLMISRTPEVTCVVVDVSHEDPEVKFNWYVDGVEVHNAKTKPREEQYNSTYRVVSVLTVLHQDWLNGKEYKCKVSNKALPAPIEKTISKAKGQPREPQVYTLPPIRELMTSNQVSLSCAVKGFYPSDIAVEWESNGQPENNYKTTPPVLDSDGSFFLVSKLTVDKSRWQQGNVFSCSVMHEALHNHYTQKSLSLSPGKSGSETPGTSESATPESGGGEVQLVESGGGLVQPGGSLRLSCAASGFNIHSSSIHWVRQAPGKGLEWVAATYSSFGSITYADSVKGRFTISADTSKNTAYLQMNSLRAEDTAVYYCARYHHPFGYALDYWGQGTLVTVSSASTKGPSVFPLAPSSKSTSGGTAALGCLVKDYFPEPVTVSWNSGALTSGVHTFPAVLQSSGLYSLSSVVTVPSSSLGTQTYICNVNHKPSNTKVDKKVEPKSCDKTHT
heavy 2: MNLLLILTFVAAAVAEFEVQLVESGGGLVQPGGSLRLSCAASGFNISYSSIHWVRQAPGKGLEWVASISPYYGYTYYADSVKGRFTISADTSKNTAYLQMNSLRAEDTAVYYCARSSYFPWFSAMDYWGQGTLVTVSSGGGGSDIQMTQSPSSLSASVGDRVTITCRASQSVSSAVAWYQQKPGKAPKLLIYSASSLYSGVPSRFSGSRSGTDFTLTISSLQPEDFATYYCQQYYWPITFGQGTKVEIKLEDKTHTKVEPKTSDKTHTCPPCPAPELLGGPSVFLFPPKPKDTLMISRTPEVTCVVVDVSHEDPEVKFNWYVDGVEVHNAKTKPREEQYNSTYRVVSVLTVLHQDWLNGKEYKCKVSNKALPAPIEKTISKAKGQPREPMVFDLPPSREEMTKNQVSLWCMVKGFYPSDIAVEWESNGQPENNYKTTPPVLDSDGSFFLYSKLTVDKSRWQQGNVFSCSVMHEALHNHYTQKSLSLSPGKSGSETPGTSESATPESGGGEVQLVESGGGLVQPGGSLRLSCAASGFNIHSSSIHWVRQAPGKGLEWVAATYSSFGSITYADSVKGRFTISADTSKNTAYLQMNSLRAEDTAVYYCARYHHPFGYALDYWGQGTLVTVSSASTKGPSVFPLAPSSKSTSGGTAALGCLVKDYFPEPVTVSWNSGALTSGVHTFPAVLQSSGLYSLSSVVTVPSSSLGTQTYICNVNHKPSNTKVDKKVEPKSCDKTHT
light: DIQMTQSPSSLSASVGDRVTITCRASQSVSSAVAWYQQKPGKAPKLLIYSASSLYSGVPSRFSGSRSGTDFTLTISSLQPEDFATYYCQQGVYLFTFGQGTKVEIKRTVAAPSVFIFPPSDEQLKSGTASVVCLLNNFYPREAKVQWKVDNALQSGNSQESVTEQDSKDSTYSLSSTLTLSKADYEKHKVYACEVTHQGLSSPVTKSFNRGEC
- TOPFLASH % Wnt Maxima [1]: 49 % Wnt Maxima
- TOPFLASH Maximal Signal (% Wnt3a maxima) [2]: 50 % Wnt3a maxima
